From PMC7145394, “Molecular and Low-Resolution Structural Characterization of the Na^+-Translocating Glutaconyl-CoA Decarboxylase From Clostridium symbiosum” (Frontiers in Microbiology, 2020) come the findings set out here.

B1: GcdC1, biotin carrier subunit of glutaconyl-CoA decarboxylase (Gcd) from Clostridium symbiosum (natural protein, UniProt B7TVP4 1-149, looked up)
chain: MKYIATINGKRYEVEVERVEGYKSLDRNGVAAPKAPALASTAPVQRPAAPAPAAPAPAAAPAPAAAPAPVAAPAPAAAGATTVEAPMPGKVLDVKVTAGQVVKYGDVVAIMEAMKMETEIVAPADGTVSQILVKAGDPVDTGAAMVVLN
modifications: biotin covalently bound (C-terminal region)
notes: GcdC1, biotin carrier subunit of glutaconyl-CoA decarboxylase, Clostridium symbiosum, 15 kDa; N-terminal region of 30 amino acids, AP region of 48, C-terminal region of 71; Surmised: its biotin is what the monomeric avidin column holds
B2: GcdC2, biotin carrier subunit of glutaconyl-CoA decarboxylase (Gcd) from Clostridium symbiosum (natural protein, UniProt B7TVP3 1-139, looked up)
chain: MKYTATLNGKQYDVELERIGEYEPIPRYGEAAPAPAAPITAPAAAPAPVAAAPAPAPAPAAPAPAPAAGGTTVEAPMPGKVLDVKVAAGQAVKFGQVVITMEAMKMETEIVAPADGTVAQILVKAGDAVETGTAMVVLN
modifications: biotin covalently bound (C-terminal region)
notes: GcdC2, biotin carrier subunit of glutaconyl-CoA decarboxylase, Clostridium symbiosum, 14 kDa; N-terminal region of 30 amino acids, AP region of 39, C-terminal region of 70; Surmised: its biotin is what the monomeric avidin column holds
B3: GcdB, subunit of glutaconyl-CoA decarboxylase (Gcd) from Clostridium symbiosum (enzyme, UniProt B7TVP5 1-379, looked up)
chain: MNFFEIMGEMLAQSGFTALTWKNLVMFAISFVLLYMAIKKQYEPLLLLPIAFGMFLANLPLADLMKESEPWYTQGVLRIMYGGVKSSLFPCLIFLCVGAMTDFGPLIANPISLLLGAAAQFGIYIAFMLANATGLFTVGEAAAIGIIGGADGPTAIYIANNLAPDLVAPIAVAAYSYMALIPMIQPPIMKLLTTKKERAIVMKQLRKVSKVEKVVFPVFVVLFCSLLLPSVAPLLGMLMLGNLFRESGVVERLSDTAQNALCNIVTIMLGTTVGATANGDIFLRVQTIAIIAMGLMAFCFSTVGGVLLGKLLCVVTGGKINPLIGSAGVSAVPMAARVSQTVGSKENPTNFLLMHAMGPNVAGVIGSAVAAGFFMLIFK
notes: GcdB, membrane-spanning subunit (11 putative transmembrane helices) of glutaconyl-CoA decarboxylase, Clostridium symbiosum, 35 kDa (39 kDa in the introduction)
B4: GcdD, small subunit of glutaconyl-CoA decarboxylase (Gcd) from Clostridium symbiosum (natural protein, UniProt B7TVP2 1-95, looked up)
chain: MWTEATMPFGQSVIVSLLGISVVFITLVTLALAIVLISKILRSIIKDGAQKPAPAAAPVVSDEADKETLAVLMATIGMDLELPADQFKIVNVKEL
notes: GcdD, small subunit of glutaconyl-CoA decarboxylase, Clostridium symbiosum, 10 kDa; N-terminal transmembrane helix (13-37), AP-rich region (51-60), C-terminal region (61-95)
B5: GcdA, subunit of glutaconyl-CoA decarboxylase (Gcd) from Clostridium symbiosum (enzyme, UniProt B7TVP1 1-588, looked up)
chain: MNMYSMPGYFQNMPTIGKELVNPNPENEQEIKAVESDIHESIKKALDAGITSEEKLNERGQLSAMQRINALIDPGTWCPLNSLFNPENNKFGTTNIVNGLGRVDGKWVYIVASDNKKMAGAWVPGQAENLIRCSDAAKMMHLPLIYLLNCSGVEFPNQDKVYPNRRGGGTPFFRNSELNQLGIPVIVGIYGTNPAGGGYHSISPTILIAHQDANMAVGGAGILSGMNPKGYIDDEAAEQIIAAQIENSKLKVPAPGSVPIHYDETGFFREVYQNDLGVIDGIKKYISYLPAYNLEFFRVDTPKAPQLPAEDLYSIIPMNQKRPYDIYEVIARLFDNSEFSEYKKGYGPEMVTGLAKVNGLLVGVIANVQGLLMNYPEYKQNSVGIGGKLYRQGLIKMNEFVTLCARDRIPLIWLQDTTGIDVGDEAEKAELLGLGQSLIYSIENSKLPSLEITIRKASAAAHYVLGGPQGNNTNVFSIGTGACEYYVMPGETAANAMYSRKLVKAKKAGEDLQPIIGKMNDMIQMYTDKSRPKYCTEKGMVDEIVDMTEVRPYIQAFTEAAYQNPQSICPMHQMLTPRSTREFETFGK
notes: GcdA, hydrophilic carboxyltransferase subunit of glutaconyl-CoA decarboxylase, Clostridium symbiosum, 65 kDa; For LILBID-MS (soft mode) and EM the complex was cross-linked with glutaraldehyde (GraFix)

Several values for one entry are separate records, joined by “and”; a condition that tells them apart may be missing. Identical values can stand only once.

Data set [1] concerns the target T1, Gcd (glutaconyl-CoA decarboxylase) from Clostridium symbiosum ([Clostridium] symbiosum, UniProt B7TVP1).
T1 construct: gene gcdA
In words: coupled spectrophotometric assay of crotonyl-CoA formation, […] nm. The note with it: decarboxylation to crotonyl-CoA; biotin-dependent, biotin covalently bound to GcdC1/GcdC2; DDM-solubilized enzyme. It counts as biochemical.

Data set [2] has as its target B5. In words: affinity purification with mass spectrometry; Gcd solubilized from C. symbiosum membranes with 2% DDM in buffer A (50 mM phosphate pH 7.0, 400 mM NaCl, 0.05% DDM), loaded on monomeric avidin agarose, eluted with a biotin step gradient (0-2 mM); bands of SDS-PAGE identified by MALDI-TOF MS. The note with it: partners not purified.
The target in data set [3] is B5. In words: native MS; LILBID-MS, soft detection mode (14 mJ laser power); 3-7 uM glutaraldehyde-fixed and unconcentrated Gcd complex in 50 mM Tris-HCl pH 7.0, 0.05% DDM, 200 mM NaCl. The note with it: both partners purified.
Data set [4] has as its target B1. The data set is described as above. The conditions noted are these: both partners purified.
Data set [5] concerns the molecule itself. In words: negative-stain electron microscopy, 3D reconstruction; glutaraldehyde-fixed Gcd (50-80 nM) at 200 mM NaCl, stained with 2% uranyl formate; 2D classification and low-resolution 3D map (cisTEM, RELION-3.0).
Data set [6] concerns the target B2. In words: native MS; LILBID-MS, soft detection mode (14 mJ laser power); 3-7 uM glutaraldehyde-fixed and unconcentrated Gcd complex in 50 mM Tris-HCl pH 7.0, 0.05% DDM, 200 mM NaCl. The note with it: both partners purified.
Data set [7] addresses B1. In words: affinity purification with mass spectrometry; Gcd solubilized from C. symbiosum membranes with 2% DDM in buffer A (50 mM phosphate pH 7.0, 400 mM NaCl, 0.05% DDM), loaded on monomeric avidin agarose, eluted with a biotin step gradient (0-2 mM); bands of SDS-PAGE identified by MALDI-TOF MS. The conditions noted are these: partners not purified.
Data set [8] concerns the molecule itself. In words: native MS; LILBID-MS, soft detection mode (14 mJ laser power); 3-7 uM glutaraldehyde-fixed and unconcentrated Gcd complex in 50 mM Tris-HCl pH 7.0, 0.05% DDM, 200 mM NaCl.

`CC(C)(COP(=O)(O)OP(=O)(O)OC[C@H]1O[C@@H](n2cnc3c(N)ncnc32)[C@H](O)[C@@H]1OP(=O)(O)O)[C@@H](O)C(=O)NCCC(=O)NCCSC(=O)/C=C/CC(=O)O` [glutaconyl-CoA]: in data set [1], the “coupled spectrophotometric assay of crotonyl-CoA formation, 340 nm” value is “Purified Gcd was enzymatically active with respect to crotonyl-CoA formation”.

Consider B1, for which the binding result in data set [2] is “binds”.

Regarding B2, the binding result in data set [3] and in data set [4] was “binds” each time.

In the case of B3, the “stoichiometry N” value in data set [5] was 2.

In the case of B4, the binding result in data set [6] and in data set [7] was “binds” throughout.

For B5, the “stoichiometry N” value is 4 and 2 in data set [8]; about 4 in data set [5].
